The source of these data is publication PMC5429858.

The series has as its system EZH2 (recombinant PRC2 complex). Briefly: pull-down (streptavidin) + western. The conditions noted are these: Folding buffer 100 mM KCl, 50 mM Tris-HCl, 5 mM MgCl2, 0.1 mM CaCl2, 0.5 mM ZnCl2 with BSA and RNase inhibitor (pH not given); PNA 30 min 37 C (legend: 1 h …).

For the substance HOTAIR full-length lncRNA, the binding signal (% reduction of binding) was found to be 80.
